{"source": "paper PMC8523659", "about": "(Scientific Reports, 2021)", "binders": {"B1": {"name": "single-domain VHH antibody Z18 (VHH)", "VHH": "QVQLVESGGGLVQAGDSLRLSCAASGRTFSGYAMGWFRQAPGKEREFVARINWSGTLTYYADSVKGRFTGSRDNAKNTVYLQMNSLKPEDTAVYYCAQRGDSGSNYDPSGYSYWGQGTQVTVSS", "notes": "pRA2 vector with N-terminal pelB signal peptide; also called wild-type Z18; source: E. coli BL21 (DE3), purified (Ni-NTA, SEC); not shown: hexa-histidine, C-terminal, kept"}, "B2": {"name": "Z18-G32D (VHH)", "VHH": "B1 VHH with G31D", "notes": "IMGT numbering; the methods describe vector and expression for Z18 and Z26; source: E. coli BL21 (DE3), purified (Ni-NTA, SEC)"}, "B3": {"name": "Z18-R50L (VHH)", "VHH": "B1 VHH with R45L", "notes": "as for B2"}, "B4": {"name": "Z18-I56V (VHH)", "VHH": "B1 VHH with I51V", "notes": "as for B2"}, "B5": {"name": "Z18-T61L (VHH)", "VHH": "B1 VHH with T56L", "notes": "as for B2"}, "B6": {"name": "Z18-G78A (VHH)", "VHH": "B1 VHH with G70A", "notes": "as for B2"}, "B7": {"name": "Z18-N85S (VHH)", "VHH": "B1 VHH with N77S", "notes": "as for B2"}, "B8": {"name": "Z18-Y114F (VHH)", "VHH": "B1 VHH with Y106F", "notes": "as for B2"}, "B9": {"name": "Z18-S133R (VHH)", "VHH": "B1 VHH with S112R", "notes": "as for B2"}, "B10": {"name": "Z18-R50L/G78A/S133R (VHH)", "VHH": "B1 VHH with R45L, G70A, S112R", "notes": "as for B2"}, "B11": {"name": "Z18-G32D/R50L/G78A/S133R (VHH)", "VHH": "B1 VHH with G31D, R45L, G70A, S112R", "notes": "as for B2"}, "B12": {"name": "single-domain VHH antibody Z26 (VHH)", "VHH": "B1 VHH with V2L, G31D, R45L, I51V, T56L, G70A, N77S, Y106F, S112R", "notes": "differs from Z18 at nine residues; pRA2 vector with N-terminal pelB signal peptide; also called wild-type Z26; source: E. coli BL21 (DE3), purified (Ni-NTA, SEC); not shown: hexa-histidine, C-terminal, kept"}, "B13": {"name": "Z18-V2L (VHH)", "VHH": "B1 VHH with V2L", "notes": "as for B2"}}, "key": {"[1]": {"target": "T1, human serum albumin (Homo sapiens, UniProt P02768)", "T1 construct": "human serum albumin (HSA), purchased from Sigma-Aldrich Japan; dissolved in phosphate buffer and dialysed; also called HSA; source: bought: Sigma-Aldrich Japan", "test": "SPR; Biacore T200; HSA immobilised on CM5 chip by amine coupling (~1000 RU); increasing concentrations of antibodies injected at 30 μl/min; PBS with 0.05% Tween-20; global fit, 1:1 Langmuir model", "conditions": "both partners purified"}, "[2]": {"target": "T1, human serum albumin", "test": "SPR; Biacore T200; HSA immobilised on CM5 chip by amine coupling (~1000 RU); increasing concentrations of antibodies injected at 30 μl/min; PBS with 0.05% Tween-20; global fit, 1:1 Langmuir model", "conditions": "both partners purified", "remark": "listed apart in the source"}}, "note": "Numbering of substitutions follows the chain as printed. Names may count otherwise.", "data": [{"binder": "B1", "values": [{"measurement": "Kd", "setting": "[1]", "result": 175, "unit": "nM"}, {"measurement": "Kd", "setting": "[2]", "result": 334, "unit": "nM"}, {"measurement": "koff", "setting": "[2]", "result": 0.259, "unit": "s⁻¹"}, {"measurement": "kon", "setting": "[2]", "result": 774000, "unit": "M⁻¹ s⁻¹"}]}, {"binder": "B2", "values": [{"measurement": "Kd", "setting": "[2]", "result": 172, "unit": "nM"}, {"measurement": "koff", "setting": "[2]", "result": 0.12, "unit": "s⁻¹"}, {"measurement": "kon", "setting": "[2]", "result": 696000, "unit": "M⁻¹ s⁻¹"}]}, {"binder": "B3", "values": [{"measurement": "Kd", "setting": "[2]", "result": 412, "unit": "nM"}, {"measurement": "koff", "setting": "[2]", "result": 0.284, "unit": "s⁻¹"}, {"measurement": "kon", "setting": "[2]", "result": 689000, "unit": "M⁻¹ s⁻¹"}]}, {"binder": "B4", "values": [{"measurement": "Kd", "setting": "[2]", "result": 296, "unit": "nM"}, {"measurement": "koff", "setting": "[2]", "result": 0.22, "unit": "s⁻¹"}, {"measurement": "kon", "setting": "[2]", "result": 741000, "unit": "M⁻¹ s⁻¹"}]}, {"binder": "B5", "values": [{"measurement": "Kd", "setting": "[2]", "result": 8.63, "unit": "nM"}, {"measurement": "koff", "setting": "[2]", "result": 0.037, "unit": "s⁻¹"}, {"measurement": "kon", "setting": "[2]", "result": "4.33e+06", "unit": "M⁻¹ s⁻¹"}]}, {"binder": "B6", "values": [{"measurement": "Kd", "setting": "[2]", "result": 7110, "unit": "nM"}, {"measurement": "koff", "setting": "[2]", "result": 1.1, "unit": "s⁻¹"}, {"measurement": "kon", "setting": "[2]", "result": 155000, "unit": "M⁻¹ s⁻¹"}]}, {"binder": "B7", "values": [{"measurement": "Kd", "setting": "[2]", "result": 344, "unit": "nM"}, {"measurement": "koff", "setting": "[2]", "result": 0.238, "unit": "s⁻¹"}, {"measurement": "kon", "setting": "[2]", "result": 692000, "unit": "M⁻¹ s⁻¹"}]}, {"binder": "B8", "values": [{"measurement": "Kd", "setting": "[2]", "result": 12.9, "unit": "nM"}, {"measurement": "koff", "setting": "[2]", "result": 0.096, "unit": "s⁻¹"}, {"measurement": "kon", "setting": "[2]", "result": "7.45e+06", "unit": "M⁻¹ s⁻¹"}]}, {"binder": "B9", "values": [{"measurement": "Kd", "setting": "[2]", "result": 67.2, "unit": "nM"}, {"measurement": "koff", "setting": "[2]", "result": 0.078, "unit": "s⁻¹"}, {"measurement": "kon", "setting": "[2]", "result": "1.16e+06", "unit": "M⁻¹ s⁻¹"}]}, {"binder": "B10", "values": [{"measurement": "Kd", "setting": "[2]", "result": 447, "unit": "nM"}, {"measurement": "koff", "setting": "[2]", "result": 0.785, "unit": "s⁻¹"}, {"measurement": "kon", "setting": "[2]", "result": "1.76e+06", "unit": "M⁻¹ s⁻¹"}]}, {"binder": "B11", "values": [{"measurement": "Kd", "setting": "[2]", "result": 797, "unit": "nM"}, {"measurement": "koff", "setting": "[2]", "result": 0.412, "unit": "s⁻¹"}, {"measurement": "kon", "setting": "[2]", "result": 516000, "unit": "M⁻¹ s⁻¹"}]}, {"binder": "B12", "values": [{"measurement": "Kd", "setting": "[2]", "result": 0.54, "unit": "nM"}, {"measurement": "koff", "setting": "[2]", "result": 0.000816, "unit": "s⁻¹"}, {"measurement": "kon", "setting": "[2]", "result": "1.51e+06", "unit": "M⁻¹ s⁻¹"}]}, {"binder": "B13", "values": [{"measurement": "Kd", "setting": "[2]", "result": 366, "unit": "nM"}, {"measurement": "koff", "setting": "[2]", "result": 0.276, "unit": "s⁻¹"}, {"measurement": "kon", "setting": "[2]", "result": 754000, "unit": "M⁻¹ s⁻¹"}]}]}
